From patent publication US20150299272A1 (UNIVERSITY OF NEWCASTLE UPON TYNE, published 2015) come the findings set out here.

Data set [1] addresses Caf1-6His NT + Spacer linking peptide (Yersinia pestis). The experiment in a line: co-expression in E. coli, western blot of partly heat-dissociated polymer.
Data set [2] deals with the molecule itself. The experiment in a line: Superdex 200 gel filtration (self-association). (In gel filtration, larger molecules generally elute earlier.)

B1: Caf1 WT (naturally occurring Caf1 polypeptide monomer from Yersinia pestis; fraction 1 antigen polymer) (other)
chain: ADLTASTTATATLVEPARITLTYKEGAPITIMDNGNIDTELLVGTLTLGGYKTGTTSTSVNFTDAAGDPMYLTFTSQDGNNHQFTTKVIGKDSRDFDISPKVNGENLVGDDVVLATGSQDFFVRSIGSKGGKLAAGKYTDAVTVTVSNQ
Consider B1, for which the binding result in data set [1] and in data set [2] was “binds” in each case.
